Assay results published in IntAct's records for PubMed 21960005.

B1: Ran-binding protein 3 (Homo sapiens), Q9H6Z4 (parent)
chain: MADLANEEKPAIAPPVFVFQKDKGQKSPAEQKNLSDSGEEPRGEAEAPHHGTGHPESAGEHALEPPAPAGASASTPPPPAPEAQLPPFPRELAGRSAGGSSPEGGEDSDREDGNYCPPVKRERTSSLTQFPPSQSEERSSGFRLKPPTLIHGQAPSAGLPSQKPKEQQRSVLRPAVLQAPQPKALSQTVPSSGTNGVSLPADCTGAVPAASPDTAAWRSPSEAADEVCALEEKEPQKNESSNASEEEACEKKDPATQQAFVFGQNLRDRVKLINESVDEADMENAGHPSADTPTATNYFLQYISSSLENSTNSADASSNKFVFGQNMSERVLSPPKLNEVSSDANRENAAAESGSESSSQEATPEKESLAESAAAYTKATARKCLLEKVEVITGEEAESNVLQMQCKLFVFDKTSQSWVERGRGLLRLNDMASTDDGTLQSRLVMRTQGSLRLILNTKLWAQMQIDKASEKSIRITAMDTEDQGVKVFLISASSKDTGQLYAALHHRILALRSRVEQEQEAKMPAPEPGAAPSNEEDDSDDDDVLAPSGATAAGAGDEGDGQTTGST
B2: Ran-binding protein 3 (Homo sapiens), Q9H6Z4 (parent)
chain: B1 chain
partner: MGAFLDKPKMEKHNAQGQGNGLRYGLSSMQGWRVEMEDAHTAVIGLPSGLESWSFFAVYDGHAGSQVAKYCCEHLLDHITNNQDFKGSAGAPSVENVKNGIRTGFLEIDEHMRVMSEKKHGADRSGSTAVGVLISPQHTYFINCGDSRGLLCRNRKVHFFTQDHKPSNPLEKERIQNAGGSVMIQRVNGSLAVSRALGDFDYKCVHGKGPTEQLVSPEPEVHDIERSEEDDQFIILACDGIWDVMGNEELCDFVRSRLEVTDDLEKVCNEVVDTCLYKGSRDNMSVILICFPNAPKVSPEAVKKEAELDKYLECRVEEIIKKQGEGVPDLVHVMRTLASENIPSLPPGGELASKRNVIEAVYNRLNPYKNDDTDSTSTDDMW

Variants of: B1
Settings: with smad2_human SMAD2, Q15796
smad2_human SMAD2, Q15796, sequence (Q15796 whole entry): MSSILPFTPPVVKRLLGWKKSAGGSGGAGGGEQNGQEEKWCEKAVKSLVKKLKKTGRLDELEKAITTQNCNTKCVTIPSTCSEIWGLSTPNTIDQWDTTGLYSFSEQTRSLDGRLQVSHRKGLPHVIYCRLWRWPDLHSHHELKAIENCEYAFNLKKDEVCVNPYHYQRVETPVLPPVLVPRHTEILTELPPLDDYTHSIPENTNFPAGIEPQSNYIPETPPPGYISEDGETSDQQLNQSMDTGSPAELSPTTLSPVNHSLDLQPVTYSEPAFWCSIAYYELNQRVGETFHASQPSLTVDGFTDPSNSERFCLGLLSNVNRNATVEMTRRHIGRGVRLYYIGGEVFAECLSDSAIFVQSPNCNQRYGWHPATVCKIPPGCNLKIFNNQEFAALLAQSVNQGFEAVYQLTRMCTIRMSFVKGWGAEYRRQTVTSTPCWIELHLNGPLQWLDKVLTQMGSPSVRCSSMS

Row | effect of a mutation on the interaction | Variant
1 | decreasing interaction | S57D

Variants of: B2
Settings: with ppm1a_human PPM1A

Row | effect of a mutation on the interaction | Variant
2 | decreasing interaction | S57A

Variants of: B2
Settings: with ppm1a_human PPM1A
Remark: another data set of the same source

Row | effect of a mutation on the interaction | Variant
3 | increasing interaction | S57D
